Data published in patent US20240360214A1 (Pfizer, published 2024).

What was measured:
[1] = target: T1, LILRB1 expressed on THP1 cells (human, UniProt Q8NHL6 24-650); experiment: flow cytometry competition with PE HLA-G tetramer on THP1-LILRB1 cells
T1 construct: whole, on cells; also called THP1 LILRB1 expressing cells; THP1-LILRB1 cells
Procedure: (§1) LILRB1 or LILRB2 overexpressing THP1 cells were prepared in FACS buffer (0.5% BSA in PBS) and seeded in 100 μl/well (96 well plate) at 1λ10⁶ cells/ml concentration. The tested antibodies were serially diluted 3-fold into assay buffer starting from 200 nM. 40 μl of serial diluted antibody together with 40 μl of PE labelled HLA-G tetramer (FRED HUTCH IMT40509) at 2 ug/ml were added to each well and incubated on ice for 1 hour. The cells were washed 2 times with FACS buffer and resuspended in 50 μl/well FACS buffer containing 1:1000 dilution of LIVE/Dead fixable violet dead cell stain (Invitrogen #L34964), incubated on ice for 15 minutes. The cells were then washed with FACS buffer for 2 times and resuspended in 80 μl of Cytofix buffer (BD Cat #554655).

[2] = target: T1, LILRB1 expressed on THP1 cells; experiment: flow cytometry competition with PE HLA-G tetramer on THP1-LILRB1 cells (THP-B1)
Procedure: as §1

huLILRA5 = huLILRA5 (human, UniProt A6NI73 42-268, limits assumed); experiment: SPR (Biacore), antibody captured
Chain of huLILRA5 (A6NI73 42-268 limits assumed): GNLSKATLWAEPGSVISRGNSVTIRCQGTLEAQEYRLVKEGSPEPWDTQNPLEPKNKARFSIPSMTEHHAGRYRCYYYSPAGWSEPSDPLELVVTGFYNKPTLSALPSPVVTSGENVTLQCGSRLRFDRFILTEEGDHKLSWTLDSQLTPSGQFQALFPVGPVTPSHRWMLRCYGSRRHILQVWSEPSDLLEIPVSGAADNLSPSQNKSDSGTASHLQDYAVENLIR

huLILRA2 = huLILRA2 (human, UniProt Q8N149 24-449, limits assumed); experiment: SPR (Biacore), antibody captured
Chain of huLILRA2 (Q8N149 24-449 limits assumed): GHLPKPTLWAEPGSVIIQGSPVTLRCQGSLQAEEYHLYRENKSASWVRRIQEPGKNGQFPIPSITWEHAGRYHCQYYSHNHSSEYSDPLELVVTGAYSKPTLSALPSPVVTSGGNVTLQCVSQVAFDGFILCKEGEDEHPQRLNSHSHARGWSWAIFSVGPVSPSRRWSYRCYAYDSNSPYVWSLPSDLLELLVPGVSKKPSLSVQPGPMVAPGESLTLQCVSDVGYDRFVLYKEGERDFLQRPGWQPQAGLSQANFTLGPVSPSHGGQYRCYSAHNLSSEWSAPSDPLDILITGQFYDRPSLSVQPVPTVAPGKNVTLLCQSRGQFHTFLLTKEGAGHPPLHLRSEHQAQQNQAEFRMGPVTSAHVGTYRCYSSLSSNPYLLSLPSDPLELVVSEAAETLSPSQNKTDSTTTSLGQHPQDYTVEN

huLILRA1 = huLILRA1 (human, UniProt O75019 17-461, limits assumed); experiment: SPR (Biacore), antibody captured
Chain of huLILRA1 (O75019 17-461 limits assumed): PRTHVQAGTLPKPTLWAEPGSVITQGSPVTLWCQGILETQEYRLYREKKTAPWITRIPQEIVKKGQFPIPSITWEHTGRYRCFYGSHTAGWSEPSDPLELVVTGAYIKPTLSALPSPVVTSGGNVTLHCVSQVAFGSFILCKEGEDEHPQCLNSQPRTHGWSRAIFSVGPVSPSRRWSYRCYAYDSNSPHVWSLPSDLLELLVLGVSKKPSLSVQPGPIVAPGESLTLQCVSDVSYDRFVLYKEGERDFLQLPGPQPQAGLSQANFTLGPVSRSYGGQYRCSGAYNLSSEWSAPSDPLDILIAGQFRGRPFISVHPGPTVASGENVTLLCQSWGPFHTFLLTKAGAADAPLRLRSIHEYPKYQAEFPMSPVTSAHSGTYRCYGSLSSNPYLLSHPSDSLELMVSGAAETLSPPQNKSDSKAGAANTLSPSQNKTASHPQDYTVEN

[3] = target: T2, human LILRB1 (huLILRB1), purified recombinant protein from R&D Systems (human, UniProt Q8NHL6 24-458, limits assumed); experiment: SPR (Biacore 8K, 37 C), antibody captured by anti-human Fc, huLILRB1 as analyte, 1:1 fit
T2 construct: Bought protein, used as the SPR analyte and as the ELISA coat; The catalog number 8429-T4 is printed once for 'human LILRB2 or LILRB1'
T2 sequence (Q8NHL6 24-458 limits assumed): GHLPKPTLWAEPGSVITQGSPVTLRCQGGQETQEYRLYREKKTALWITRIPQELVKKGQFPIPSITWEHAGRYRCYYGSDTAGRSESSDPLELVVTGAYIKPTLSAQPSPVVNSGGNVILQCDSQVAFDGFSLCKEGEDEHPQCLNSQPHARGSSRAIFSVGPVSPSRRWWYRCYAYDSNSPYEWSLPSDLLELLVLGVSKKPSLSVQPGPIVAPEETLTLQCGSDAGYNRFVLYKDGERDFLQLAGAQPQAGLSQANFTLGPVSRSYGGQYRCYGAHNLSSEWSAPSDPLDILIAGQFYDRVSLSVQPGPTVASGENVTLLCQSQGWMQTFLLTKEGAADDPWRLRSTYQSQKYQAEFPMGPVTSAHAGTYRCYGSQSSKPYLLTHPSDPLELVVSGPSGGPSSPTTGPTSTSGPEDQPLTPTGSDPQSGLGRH
Procedure: (§2) Biacore kinetic assays were conducted at 37° C. with a collection rate of 10 Hz using the Biacore 8K and 8K+ instruments (Cytiva). […] The final capture levels of the antibodies ranged from 20 resonance units (RU) to 60 RU. HBS-EP+pH 7.4 (10 mM HEPES pH 7.4, 150 mM NaCl, 3 mM EDTA, 0.05% Tween 20) was used as sample and running buffer. Flow cell 1 was used as a reference flow cell. Two-fold serial dilutions of human LILRB2 or LILRB1 (R&D Systems, Catalog number: 8429-T4) were prepared with concentrations from 45 nM to 1.667 nM for LILRB2; 405 nM to […] for LILRB1. Dilutions were prepared in duplicate and injected over all flow cells for 60 s at flow rate of 50 μl per minute. Dissociation was monitored for 600 s and the surface was regenerated with two 30 s injections of 3M MgCl₂ at flow rate of 50 μl per minute. The resulting data was double referenced (Myszka, D. G. Improving biosensor analysis. J. Mol. Recognit. 12:279-284; (1999). Rate constants and affinities were determined by fitting the sensorgram data to a Langmuir 1:1 model using Biacore Insight Evaluation software version 3.0.12 (Cytiva).

[4] = target: T3, LILRB2 expressed on THP1 cells (human, UniProt Q8N423 22-597); experiment: flow cytometry competition with PE HLA-G tetramer on THP1-LILRB2 cells; upper end of the printed range 1.7-6 nM
T3 construct: whole, on cells; also called THP1 LILRB2 expressing cells; THP1-LILRB2 cells
T3 sequence (Q8N423 22-597): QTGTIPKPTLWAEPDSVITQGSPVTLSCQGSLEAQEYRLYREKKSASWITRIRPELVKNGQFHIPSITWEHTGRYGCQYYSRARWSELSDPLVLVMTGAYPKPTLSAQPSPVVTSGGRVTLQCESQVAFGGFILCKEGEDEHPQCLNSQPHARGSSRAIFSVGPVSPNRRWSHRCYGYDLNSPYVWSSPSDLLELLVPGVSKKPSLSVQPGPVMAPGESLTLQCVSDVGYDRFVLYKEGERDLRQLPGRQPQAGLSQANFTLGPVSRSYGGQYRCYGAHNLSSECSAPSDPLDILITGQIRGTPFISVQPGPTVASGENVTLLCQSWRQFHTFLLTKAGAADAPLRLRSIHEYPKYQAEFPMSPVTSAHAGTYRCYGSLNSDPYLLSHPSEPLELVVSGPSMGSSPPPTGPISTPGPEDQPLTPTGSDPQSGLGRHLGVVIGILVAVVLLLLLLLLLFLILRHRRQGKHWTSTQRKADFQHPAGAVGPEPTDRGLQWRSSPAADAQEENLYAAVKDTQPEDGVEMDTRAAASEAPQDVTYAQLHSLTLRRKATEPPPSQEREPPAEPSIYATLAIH
Procedure: as §1

[5] = target: T3, LILRB2 expressed on THP1 cells; experiment: flow cytometry competition with PE HLA-G tetramer on THP1-LILRB2 cells; lower end of the printed range 1.7-6 nM
Procedure: as §1

[6] = target: T3, LILRB2 expressed on THP1 cells; experiment: flow cytometry competition with PE HLA-G tetramer on THP1-LILRB2 cells (THPB2)
Procedure: as §1

[7] = target: T4, human LILRB2 (huLILRB2), purified recombinant protein (human, UniProt Q8N423 22-458, limits assumed); experiment: SPR (Biacore 8K, 37 C), antibody captured by anti-human Fc, huLILRB2 as analyte, 1:1 fit
T4 construct: Bought protein, used as the SPR analyte and as the ELISA coat; also called huLILIB2
T4 sequence (Q8N423 22-458 limits assumed): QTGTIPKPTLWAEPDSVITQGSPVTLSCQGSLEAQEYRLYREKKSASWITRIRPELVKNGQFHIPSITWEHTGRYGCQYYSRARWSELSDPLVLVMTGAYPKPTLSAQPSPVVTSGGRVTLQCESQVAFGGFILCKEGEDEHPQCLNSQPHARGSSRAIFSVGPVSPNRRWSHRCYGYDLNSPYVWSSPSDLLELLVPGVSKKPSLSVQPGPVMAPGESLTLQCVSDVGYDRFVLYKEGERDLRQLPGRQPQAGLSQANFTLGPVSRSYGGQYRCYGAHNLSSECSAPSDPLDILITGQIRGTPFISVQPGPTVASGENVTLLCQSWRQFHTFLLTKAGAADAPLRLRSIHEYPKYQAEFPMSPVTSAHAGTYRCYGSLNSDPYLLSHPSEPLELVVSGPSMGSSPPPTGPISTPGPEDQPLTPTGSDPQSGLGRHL
Procedure: as §2

T1 sequence (Q8NHL6 24-650): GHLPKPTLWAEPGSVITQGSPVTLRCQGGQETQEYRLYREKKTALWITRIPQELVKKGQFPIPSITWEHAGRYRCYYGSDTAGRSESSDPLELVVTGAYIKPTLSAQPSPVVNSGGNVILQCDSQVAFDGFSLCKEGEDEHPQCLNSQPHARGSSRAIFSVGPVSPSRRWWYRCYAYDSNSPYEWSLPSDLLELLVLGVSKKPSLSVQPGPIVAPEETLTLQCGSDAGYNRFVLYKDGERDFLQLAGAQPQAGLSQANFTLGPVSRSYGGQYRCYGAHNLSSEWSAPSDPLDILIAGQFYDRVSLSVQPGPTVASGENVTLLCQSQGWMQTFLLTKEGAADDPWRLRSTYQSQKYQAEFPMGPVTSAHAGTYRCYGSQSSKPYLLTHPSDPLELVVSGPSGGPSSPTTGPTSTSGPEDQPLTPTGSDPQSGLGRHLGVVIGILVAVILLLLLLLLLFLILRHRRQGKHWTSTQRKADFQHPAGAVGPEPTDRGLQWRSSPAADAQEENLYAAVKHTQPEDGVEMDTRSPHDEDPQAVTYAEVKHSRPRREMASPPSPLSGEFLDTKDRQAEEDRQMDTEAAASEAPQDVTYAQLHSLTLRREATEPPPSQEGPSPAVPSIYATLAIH

B1: anti-LILRB1 antibody Ab-B1-1704 (antibody, human IgG1, lambda, V domains shown)
VH: EVQLVESGGGLVQPGGSLRLSCAASGFTFSSYAMHWVRQAPGKGLEWVAVISYDGSNKYYADSVKGRFTISRDNAKNSLYLQMNSLRAEDTAVYYCARDKGIGTSPLDYWGQGTLVTVSS
VL: SYELTQPPSVSVSPGQTASITCGGNNIGSKGVHWYQQKPGQSPVLVISYDSDRPSGIPERFSGSNSGNTATLTISGTQAMDEADYYCQVWDSSTRVFGTGTKVTVLG
- IC50 [1]: 1.5 nM
- EC50 [2]: 2.69 nM
- binding result (huLILRA5): no binding
- binding result (huLILRA2): no binding
- binding result (huLILRA1): no binding
- Kd [3]: 26 nM
- koff [3]: 0.014 s⁻¹
- kon [3]: 539000 M⁻¹ s⁻¹
- t½ [3]: 0.825 min

B2: anti-LILRB2 antibody Ab-B2-1825 (antibody, human IgG1, lambda, V domains shown)
VH: EVQLLESGGGLVQPGGSLRLSCAASGFTFSSYAMSWVRQAPGKGLEWVSAISGSGGSTYYADSVKGRFTISRDNSKNTLYLQMNSLRAEDTAVYYCWRWLNLGDAFDIWGQGTMVTVSS
VL: QSVLTQPPSASGTPGQRVTISCTGSSSNIGSNTVNWYQQLPGTAPKLLIYSDNQRPSGVPDRFSGSTSGTSASLAISGLRSEDEADYFCATWEDVLAGYVVFGGGTKLTVLG
- IC50 [4]: ≤ 6 nM
- IC50 [5]: ≥ 1.7 nM
- EC50 [6]: 3.43 nM
- Kd [7]: 0.59 nM
- koff [7]: 0.000276 s⁻¹
- kon [7]: 810000 M⁻¹ s⁻¹
- t½ [7]: 54.2 min
- binding result (huLILRA5): no binding
- binding result (huLILRA2): no binding
- binding result (huLILRA1): no binding
